Results from PMC6432756.

Experiments:
[1] = biological target: D-allulose 3-epimerase from Staphylococcus aureus (Staphylococcus aureus); test: MALDI-TOF mass spectrometry; purified enzyme on HCCA matrix, acetonitrile-water 70:30 with 0.01% trifluoroacetic acid, linear mode
[2] = biological target: D-allulose 3-epimerase from Staphylococcus aureus (Staphylococcus aureus); test: SEC; purified SaDAE on Superdex 200 Increase 10/300 GL, 20 mM Tris-HCl pH 8.0, 100 mM NaCl, 1 mM DTT; markers conalbumin (75.0 kDa) and aldolase (158.0 kDa)

- stoichiometry N [1]: 4
- stoichiometry N [2]: 4
Substance: D-allulose 3-epimerase from Staphylococcus aureus (enzyme)
